In patent US20250122303A1, “TREATMENT AND PREVENTION OF CANCER USING HER3 ANTIGEN-BINDING MOLECULES” (Hummingbird Bioscience Pte. Ltd., priority 2021, published 2025):

What was measured:
[1] = clinical, literature, cited from earlier work
[2] = target: human HER3:human NRG1 complex (Homo sapiens, UniProt P21860); test: BLI binding to HER3-NRG1 complex ('open' conformation); conditions: presence of NRG1 (1:1 molar ratio)
Protocol: (§1) In further experiments, anti-HER3 antibodies were analysed in order to determine the affinity of binding to human HER3 in the context of a human HER3:human NRG1 complex (that is, HER3 provided in the ligand-bound, ‘open’ conformation), as compared to the affinity of binding to human HER3 in the absence of NRG1 complex (that is, HER3 provided in the unbound, ‘closed’ conformation).
(§2) Binding of anti-HER3 antibodies to human HER3 was evaluated by BLI. Briefly, anti-Human IgG Capture (AHC) sensors (ForteBio) were loaded with anti-HER3 IgG antibodies (25 nM). Kinetic measurements were performed in absence or presence of NRG1. NRG1 was used at 1:1 molar ratio with HER3 wherein the complex was allowed to form at RT for 2 h. His-tagged human HER3 or HER3-NRG1 complexes were loaded to antibody coated AHC sensors at different concentrations for 120 s, followed by a 120 s dissociation time. All measurements were performed at 25° C. with agitation at 1000 rpm. Sensorgrams were referenced for buffer effects and then analyzed using the Octet QK384-software (ForteBio). Kinetic responses were globally fitted using a one-site binding model to obtain values for association (Kon), dissociation (Koff) rate constants and the equilibrium dissociation constant (KD).

[3] = system: HEK293 HER3, HCC95, N87 and OVCAR8 cells; test: Antibody internalisation, pHrodo imaging; type: cell-based, human; conditions: 24 hours
Protocol: Briefly, 100,000 HEK293 cells engineered to express HER3, HCC95, N87 or OVCAR8 cells were seeded in wells of 96-well tissue culture plates and cultured overnight at 37° C. in 5% CO2. […] The cells in culture were imaged every 30 min for 24 hours, in 4 different fields of each well. The maximum signal intensity in the FITC channel of each field was quantified at 24 hours.

[4] = cited from earlier work
[5] = target: T1, human HER3 (HEK293 HER3 O/E cells) (Homo sapiens, UniProt P21860); test: Cell surface antigen-binding by flow cytometry
T1 construct: expressed in transfected cells; host or cells: HEK293
Protocol: The cells were washed thrice with FACS buffer (PBS with 5 mM EDTA and 0.5% BSA) and resuspended in FITC-conjugated anti-FC antibody (Invitrogen, USA) for 40 min at 2-8° C. Cells were washed again and resuspended in 200 μL of FACS flow buffer (PBS with 5 mM EDTA) for flow cytometric analysis using MACSQuant 10 (Miltenyi Biotec, Germany). After acquisition, all raw data were analyzed using Flowlogic software. Cells were gated using forward and side scatter profile percentage of positive cells was determined for native and overexpressing cell populations.
The cells were washed with buffer (PBS with 2 mM EDTA and 0.5% BSA) and resuspended in FITC-conjugated anti-FC antibody (Invitrogen, USA) at 10 μg/ml for 20 min at 4° C. Cells were washed again and resuspended in 200 μL of FACS flow buffer (PBS with 5 mM EDTA) for flow cytometric analysis using MACSQuant 10 (Miltenyi Biotec, Germany). Unstained WT and transfected HEK293 cells were included in the analysis as negative controls. After acquisition, all raw data were analyzed using Flowlogic software. Cells were gated using forward and side scatter profile percentage of positive cells was determined for native and overexpressing cell populations.

hHER3 = hHER3 (Homo sapiens, UniProt P21860); test: BLI binding to HER3 in absence of NRG1 ('closed' conformation)
Protocol: as §1, §2

Row | Substance | Dose where Saturating PK was observed [1] | T½ (terminal half life) [1] | Cmax (μg/ml) normalised to per mg/kg dosed [1] | affinity of binding to human HER3 [2] | internalization ([3]; HEK293 cells overexpressing HER3, 120 nM) | internalization ([3]; OvCar8 cells, 120 nM) | gastrointestinal toxicity DLTs ([4]; human, in vivo) | hypokalaemia and hypomagnesemia DLTs ([4]; in the presence of diarrhoea) | extent of binding to human HER3-expressing cells ([5]; 10 μg/ml antibody) | extent of binding to human HER3-expressing cells ([5]; 20 μg/ml antibody) | affinity of binding to human HER3 (hHER3)
1 | RG7116 | 400 to 2000 mg | 220 to 288 h | 24 to 41 µg/mL | – | – | – | – | – | – | – | –
2 | LJM716: anti-HER3 antibody binding domains II and IV, locks HER3 in inactive conformation (Garner et al.) [reference compound] | 10 to 40 mg/kg | 220 to 336 h | 19 to 22 µg/mL | dramatically reduced | significant internalization | Modest to moderate internalization | DLTs were reported | DLTs were reported | bind to human HER3-expressing cells to a similar extent | bind to human HER3-expressing cells to a similar extent | subpicomolar affinity
